Data as given in the Immune Epitope Database (IEDB).

How the values were obtained:
Assay in all cases: IEDB peptide-MHC binding, purified MHC/competitive/radioactivity; filed as Kd, often an IC50 or EC50 that approximates it; ≥ and ≤ were set here for values at or beyond the usual limits of such assays
HLA-A*11:01 = molecular target: HLA-A*11:01
HLA-A*31:01 = molecular target: HLA-A*31:01
HLA-A*33:01 = molecular target: HLA-A*33:01
HLA-A*68:01 = molecular target: HLA-A*68:01
HLA-A*03:01 = molecular target: HLA-A*03:01
HLA-A*02:06 = molecular target: HLA-A*02:06
HLA-A*02:03 = molecular target: HLA-A*02:03
HLA-A*02:02 = molecular target: HLA-A*02:02
[1] = source organism: Vaccinia virus WR
[2] = source organism: SARS coronavirus Tor2
[3] = source organism: Lassa virus Josiah
[4] = source organism: Mammarenavirus brazilense
[5] = source organism: Mammarenavirus lassaense
[6] = source organism: Mammarenavirus machupoense

Sequence | Kd (HLA-A*11:01; [1]) [µM] | Kd (HLA-A*31:01; [1]) [µM] | Kd (HLA-A*33:01; [1]) [µM] | Kd (HLA-A*68:01; [1]) [µM] | Kd (HLA-A*03:01; [1]) [µM] | other results
SFLRKIGDK | 3.93 | 0.247 | ≥ 26.2 | ≥ 35 | 7.6 | 
TLKYPIEHGI |  |  |  |  |  | Kd (HLA-A*02:06; source organism: Homo sapiens): ≥ 26.4 µM
RISSSLDQT |  |  |  |  |  | Kd (HLA-A*02:06; [1]): ≥ 27.8 µM; Kd (HLA-A*02:03; [1]): 12.8 µM; Kd (HLA-A*02:02; [1]): 6.79 µM
ALCESITLA |  |  |  |  |  | Kd (HLA-A*02:03; source organism: Dengue virus 1 Brazil/97-11/1997): 0.0173 µM
AIMTRCLAV |  |  |  |  |  | Kd (HLA-A*02:06; [2]): 0.0268 µM; Kd (HLA-A*02:03; [2]): 0.0147 µM; Kd (HLA-A*02:02; [2]): 0.0515 µM
TVKNVDIIDL |  |  |  |  |  | Kd (HLA-A*02:06; [1]): 12.4 µM; Kd (HLA-A*02:03; [1]): 8.31 µM; Kd (HLA-A*02:02; [1]): ≥ 31.3 µM
YSISNDLLY | 0.337 | 0.249 | ≥ 65.5 | 2.31 | 1.19 | 
NQAVVLMGL |  |  |  |  |  | Kd (HLA-A*02:06; source organism: Dengue virus 3 Martinique/1243/1999): 0.0884 µM
PIIVAGFSGK | 0.761 | ≥ 70 | ≥ 45.6 | 3.76 | 0.681 | 
RTRDIYISRR |  |  |  |  |  | Kd (HLA-A*11:01; [3]): 4.29 µM; Kd (HLA-A*31:01; [3]): 0.0281 µM; Kd (HLA-A*33:01; [3]): 0.725 µM; Kd (HLA-A*68:01; [3]): 1.7 µM; Kd (HLA-A*03:01; [3]): 0.393 µM
HTTAFFNTCK | 0.00146 | 0.113 | 14 | 0.00213 | 0.183 | 
YVEKEENMDK | 2.17 | 1.27 | ≥ 69.1 | 3.37 | ≥ 70.1 | 
VTYTEIEPK |  |  |  |  |  | Kd (HLA-A*11:01; [2]): 0.00749 µM; Kd (HLA-A*31:01; [2]): 1.36 µM; Kd (HLA-A*33:01; [2]): ≥ 25.7 µM; Kd (HLA-A*68:01; [2]): 0.147 µM; Kd (HLA-A*03:01; [2]): 0.0312 µM
YLRLYIILAR | 1.47 | 0.0127 | 0.117 | 0.0148 | 0.16 | 
VLFSIFYKDY | 0.972 | 1.2 | 3.09 | 1.16 | 0.668 | 
RTLILAPTRV |  |  |  |  |  | Kd (HLA-A*02:06; source organism: Dengue virus 2 Jamaica/1409/1983): 0.466 µM
TIREFPRKDK | 16.2 | 0.295 | ≥ 40.9 | 7.28 | 13.1 | 
ISDNKKEYK | 0.359 | 1.82 | 10.5 | 3.42 | 1.99 | 

Sequence | Kd (HLA-A*11:01; [1]) [µM] | Kd (HLA-A*31:01; [1]) [µM] | Kd (HLA-A*33:01; [1]) [µM] | Kd (HLA-A*68:01; [1]) [µM] | Kd (HLA-A*03:01; [1]) [µM] | other results
TLEEAKTALK |  |  |  |  |  | Kd (HLA-A*11:01; [2]): 4.63 µM; Kd (HLA-A*31:01; [2]): ≥ 47.6 µM; Kd (HLA-A*33:01; [2]): ≥ 70 µM; Kd (HLA-A*68:01; [2]): ≥ 10 µM; Kd (HLA-A*03:01; [2]): 1.35 µM
KIDKLTFQIY | 17.5 | 3.41 | 13 | 1.48 | 1.27 | 
VAGTGVQFY | ≥ 26.5 | ≥ 53.9 | ≥ 77.7 | ≥ 77.7 | 7.27 | 
YVNHTASGEH |  |  |  |  |  | Kd (HLA-A*11:01; [4]): ≥ 69.7 µM; Kd (HLA-A*31:01; [4]): ≥ 70 µM; Kd (HLA-A*33:01; [4]): ≥ 69 µM; Kd (HLA-A*68:01; [4]): ≥ 21.7 µM; Kd (HLA-A*03:01; [4]): ≥ 70 µM
TLAILTALR |  |  |  |  |  | Kd (HLA-A*11:01; [2]): 4.46 µM; Kd (HLA-A*31:01; [2]): 0.326 µM; Kd (HLA-A*33:01; [2]): 0.833 µM; Kd (HLA-A*68:01; [2]): 0.117 µM; Kd (HLA-A*03:01; [2]): 3.67 µM
SVANGVPVH |  |  |  |  |  | Kd (HLA-A*11:01; [5]): 9.78 µM; Kd (HLA-A*31:01; [5]): ≥ 30.3 µM; Kd (HLA-A*33:01; [5]): ≥ 77.7 µM; Kd (HLA-A*68:01; [5]): 8.07 µM; Kd (HLA-A*03:01; [5]): 2.27 µM
KLVYIFEPEK | 0.154 | 9.21 | ≥ 70 | 1.69 | 0.0537 | 
MFMLIFNVK | 0.587 | 0.125 | 4.02 | 1.34 | 1.65 | 
FIRRKYLIY | ≥ 26.9 | ≥ 77.9 | ≥ 52.4 | ≥ 53.5 | 1.5 | 
VSTCFKLMLK |  |  |  |  |  | Kd (HLA-A*11:01; [2]): 0.0153 µM; Kd (HLA-A*31:01; [2]): 0.806 µM; Kd (HLA-A*33:01; [2]): 5.7 µM; Kd (HLA-A*68:01; [2]): 0.472 µM; Kd (HLA-A*03:01; [2]): 0.112 µM
TTYMDTFFR | 0.00198 | 0.0166 | 0.0106 | 5.07e-05 | 0.0104 | 
ASGQRCHFIK | 0.0125 | 1.47 | ≥ 63.3 | 5.13 | 0.927 | 
LTRNPAWRK |  |  |  |  |  | Kd (HLA-A*11:01; [2]): 3.95 µM; Kd (HLA-A*31:01; [2]): 5.02 µM; Kd (HLA-A*33:01; [2]): 1.57 µM; Kd (HLA-A*68:01; [2]): 1.42 µM; Kd (HLA-A*03:01; [2]): 0.222 µM
SSFDYCSTNH |  |  |  |  |  | Kd (HLA-A*11:01; [6]): 1.89 µM; Kd (HLA-A*31:01; [6]): 6.32 µM; Kd (HLA-A*33:01; [6]): 15.6 µM; Kd (HLA-A*68:01; [6]): 0.249 µM; Kd (HLA-A*03:01; [6]): 17.1 µM
VQIGEYTFEK |  |  |  |  |  | Kd (HLA-A*11:01; [2]): 0.022 µM; Kd (HLA-A*31:01; [2]): 1.66 µM; Kd (HLA-A*33:01; [2]): 11.2 µM; Kd (HLA-A*68:01; [2]): 0.35 µM; Kd (HLA-A*03:01; [2]): 0.221 µM
MVASDVCKK | 0.153 | 1.68 | 6.98 | 0.0658 | 0.266 | 
AITDNGPMPY | 0.34 | ≥ 60 | ≥ 49.6 | ≥ 23.5 | 0.251 | 
